Laboratory results as given in publication PMC8199271.

Target: T1, wild-type MBP–CHIP (C-terminus of HSC70-interacting protein, encoded by STUB1) (human), Q9UNE7
T1 chain: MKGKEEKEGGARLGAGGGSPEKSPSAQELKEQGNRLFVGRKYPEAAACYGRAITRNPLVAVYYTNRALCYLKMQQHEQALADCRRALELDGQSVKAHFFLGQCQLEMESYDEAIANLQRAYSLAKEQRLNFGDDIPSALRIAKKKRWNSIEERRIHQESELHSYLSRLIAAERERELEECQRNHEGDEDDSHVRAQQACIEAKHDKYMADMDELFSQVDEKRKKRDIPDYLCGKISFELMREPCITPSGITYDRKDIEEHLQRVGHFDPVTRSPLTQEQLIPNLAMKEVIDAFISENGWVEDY
Assay: native gel or EMSA; 5 µg MBP–CHIP in Native Sample Buffer on a 10% gel, 4 °C, 3 h at 140 V, Tris/glycine (25 mM Tris, 192 mM glycine) pH 8.3; Coomassie staining, bands analysed by Fiji (ImageJ); self-association (monomer, dimer, higher-order oligomers)
Conditions: remark: other sources report otherwise

B1: wild-type MBP–CHIP (C-terminus of HSC70-interacting protein, encoded by STUB1), Q9UNE7-1 1-303 (natural protein)
chain: MKGKEEKEGGARLGAGGGSPEKSPSAQELKEQGNRLFVGRKYPEAAACYGRAITRNPLVAVYYTNRALCYLKMQQHEQALADCRRALELDGQSVKAHFFLGQCQLEMESYDEAIANLQRAYSLAKEQRLNFGDDIPSALRIAKKKRWNSIEERRIHQESELHSYLSRLIAAERERELEECQRNHEGDEDDSHVRAQQACIEAKHDKYMADMDELFSQVDEKRKKRDIPDYLCGKISFELMREPCITPSGITYDRKDIEEHLQRVGHFDPVTRSPLTQEQLIPNLAMKEVIDAFISENGWVEDY
- stoichiometry N: 2
